These results are taken from publication PMC6104087, “Structural basis for membrane tethering by a bacterial dynamin-like pair” (Nature Communications, 2018).

The chains are these.
B1: Cj-DLP2 (natural protein, Campylobacter jejuni)
chain: MQINLLNDFIKAYENTYSVSFDDSFKGRIQELCKELNEPFMHASYALENELKELVFSLDKNVNIAIIGQFSSGKSSLLNLILGRDCLPTGVVPVTFKPTFLRYAKEYFLRVEFEDGSDIITNIEKLAFYTDQRNEVKQAKSLHIFAPIPLLEKITLVDTPGLNANENDTLTTLDELKNIHGAIWLSLIDNAGKKSEEDAIKANLELLGENSICVLNQKDKLSAEELDNVLNYAKSVFLKYFNELIAISCKEAKDEQSYEKSNFQSLLDFLTQLDTTVLKEKFVKRKILNLCEILEDENQLFVGIFDRLLNQFQSYEKHLLLAYENFLKEIEILNHQILEQLKSISERISSEIFASVKEKDAYFYKESKGFLKKDLYTRYDYKAPYISSDDAFLAMFYNSDVMSKEFKKIKNELYKSFEEIKMKLKDFINILEREILLFKAEFSNIQKDHIFQSDKNFSELRAFCNASDEYFLKDFKELLFKSILELDLFFEKLNLKAFTNYENATKLSLAFFSRKINESRVLYELDSSEFVLFYPKKSEIYERVLNELNVYEFETLLINKPILTKIAKNFLEQSQNLIQEKNKFLDLKKAELQKRRAQILNVRESIKED
notes: Cj-DLP2, dynamin-like protein of Campylobacter jejuni, gene cj0412, 71.2 kDa; Monomer alone; Two copies stand in the 2:2 tetramer with Cj-DLP1; also called cj0412; CJ0412; source: E. coli BL21 (DE3), purified (amylose resin, TEV cleavage, gel filtration); not shown: MBP, N-terminal, cleaved
B4: Cj-DLP1 (natural protein, Campylobacter jejuni, UniProt A0A0H3PJL7 1-728, looked up)
chain: MKELFQKIWQNELQFLNFDAKFQDKSKLDTAECAIILSVNKDNYERYFLLKEFQELCKKIDLRVDIFSMQNAQICILNLFKSGFISKQDLLKALKILEKISKNTEIFDFILQEKVQSIDQKALFQNDFKELNTINLELQKLSFDENLKSRLQKTLEKFQNLEFNIAITGVMNAGKSSLLNALLKEDFLGVSNIPETANLTVLSYGKSEEAKIYFWDKKEWQNILESSHFNADLKEFIDKLDKSVNIEDFIKDKPLIQNIALCELKNFSSAKNKISALIKKIEIKSHLEFLKNNISIVDTPGLDDVVVQREIVTNEYLRESDFLIHLMNASQSLTQKDADFLVHCLLNSRLSKFLIVLTKADLLSKKDLEEVIVYTKESLKSRLVDLDENLVEKIDFLCVSAKMASDFYKGLASKESLQKSGMQEFENYLFNELYAGEKSKIALRAYKKELHLELKNILSEYEMQNRLIKENKQGVSEENQKLLLELQKQNTLLKEAQDEISNSIAKLKNIDSGIDNLVLLLAKKLKERLIDEFKYLKNNAQKLNLSRILNIVDITTKDGINDILREIKFENIKKIEELKTNLSLKYDFLKDDFDNGFEGFKDGISKNIDSIFQSEKFALLRLKIEKLSNLKSDLYELETNLDTVIFDTFKEFKMSEILNSLNINGAFFEFLNDKLKHYEKNQKSKLESLEKVLQSLKNQDANILNSFEENLEKIEKLKQLEMGLLNAD
notes: Cj-DLP1, dynamin-like protein of Campylobacter jejuni, gene cj0411, full-length protein, 84.5 kDa; Monomer alone; Two copies stand in the 2:2 tetramer with Cj-DLP2; also called cj0411; CJ0411; source: E. coli BL21 (DE3), purified (HisTrap, gel filtration)

Details in all cases: both partners purified
The target of assay [1] is B4. Kind of assay: crystal structure; Cj-DLP1/2 tetramer, apo (3.7 Å) and with GDP·AlF4¯ (3.9 Å), space group P2(1)2(1)2(1); sitting drop, 0.7–1.0 M succinate pH 7.0, 20 °C.
The assay “Cj-DLP2” deals with B1. Description: SEC-MALS; the two proteins mixed; 100 μl at 1–2 mg/ml on Superdex 200 10/300 GL in TEN 7.5 (20 mM Tris pH 7.5, 1 mM EDTA, 1 mM sodium azide), 1 mM DTT.
In assay [2] the target is B4. Described as above.

Regarding B1, the binding result in the assay with Cj-DLP1 [1] was “binds”.

B2: Cj-DLP1_(∆trunk) (natural protein)
chain: MKELFQKIWQNELQFLNFDAKFQDKSKLDTAECAIILSVNKDNYERYFLLKEFQELCKKIDLRVDIFSMQNAQICILNLFKSGFISKQDLLKALKILEKISKNTEIFDFILQEKVQSIDQKALFQNDFKELNTINLELQKLSFDENLKSRLQKTLEKFQNLEFNIAITGVMNAGKSSLLNALLKEDFLGVSNIPETANLTVLSYGKSEEAKIYFWDKKEWQNILESSHFNADLKEFIDKLDKSVNIEDFIKDKPLIQNIALCELKNFSSAKNKISALIKKIEIKSHLEFLKNNISIVDTPGLDDVVVQREIVTNEYLRESDFLIHLMNASQSLTQKDADFLVHCLLNSRLSKFLIVLTKADLLSKKDLEEVIVYTKESLKSRLVDLDENLVEKIDFLCVSAKMASDFYKGLASKESLQKSGMQEFENYLFNELYAGEKSKIALRAYKKELHLELKNILSEYEMQNRLIKLKNQDANILNSFEENLEKIEKLKQLEMGLLNAD
notes: Cj-DLP1 of Campylobacter jejuni (cj0411) with amino acids 470-695 (trunk) deleted; also called Cj-DLP1 with the trunk removed; source: E. coli BL21 (DE3), expressed and purified as for native
With B2, the binding result in the assay with Cj-DLP2 is listed as “binds”.

B3: Cj-DLP2_(∆trunk-tip) (natural protein)
chain: MQINLLNDFIKAYENTYSVSFDDSFKGRIQELCKELNEPFMHASYALENELKELVFSLDKNVNIAIIGQFSSGKSSLLNLILGRDCLPTGVVPVTFKPTFLRYAKEYFLRVEFEDGSDIITNIEKLAFYTDQRNEVKQAKSLHIFAPIPLLEKITLVDTPGLNANENDTLTTLDELKNIHGAIWLSLIDNAGKKSEEDAIKANLELLGENSICVLNQKDKLSAEELDNVLNYAKSVFLKYFNELIAISCKEAKDEQSYEKSNFQSLLDFLTQLDTTVLKEKFVKRKILNLCEILEDENQLFVGIFDRLLNQFQSYEKHLLLAYENFLKEIEILNHQILEQLKSISERMSKEFKKIKNELYKSFEEIKMKLKDFINILEREILLFKAEFSNIQKDHIFQSDKNFSELRAFCNASDEYFLKDFKELLFKSILELDLFFEKLNLKAFTNYENATKLSRVLNELNVYEFETLLINKPILTKIAKNFLEQSQNLIQEKNKFLDLKKAELQKRRAQILNVRESIKED
notes: Cj-DLP2 of Campylobacter jejuni (cj0412) with amino acids 348-401 and 509-542 within the trunk tip removed; also called Cj-DLP2 with the trunk tip removed; source: E. coli BL21 (DE3), expressed and purified as for native; not shown: MBP, N-terminal, cleaved
As to B3, the binding result in the assay with Cj-DLP1 [2] was “binds”.

On to B4, for which the “stoichiometry N” value with Cj-DLP2 is 1 Cj-DLP1 per Cj-DLP2 (2:2 tetramer).

As usually defined, the stoichiometry N is the number of molecules, sites or subunits per partner or assembly.
